Experimental data taken from US20100233157A1 (published 2010).

Tests used:
[1] = molecular target: T1, Human Fas (CD95) on the cell surface (human, UniProt P25445 26-335); assay: cell-based or functional assay
T1 sequence: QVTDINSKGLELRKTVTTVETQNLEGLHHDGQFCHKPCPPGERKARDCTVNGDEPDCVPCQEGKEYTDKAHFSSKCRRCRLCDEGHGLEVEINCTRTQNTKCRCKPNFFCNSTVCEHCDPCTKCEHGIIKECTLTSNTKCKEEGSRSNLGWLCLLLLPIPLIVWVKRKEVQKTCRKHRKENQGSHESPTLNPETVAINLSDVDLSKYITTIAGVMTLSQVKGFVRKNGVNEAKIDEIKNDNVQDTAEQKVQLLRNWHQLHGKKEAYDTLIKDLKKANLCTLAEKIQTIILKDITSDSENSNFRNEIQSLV

[2] = molecular target: T1, Human Fas (CD95) on the cell surface; assay: flow cytometry on SKW6.4 cells, FITC anti-human IgG secondary, geometric MFI after background subtraction
Description: (§1) Binding of F45D9-γ1 and F45D9-γ4 to the surface of Fas expressing Jurkat and SKW6.4 cells (from ATCC, Jurkat, clone E6-1, ATCC-TIB-152, Human T Leukemia cell line); SKW6.4 cells, ATCC-TIB-215, Human B lymphoblastoid cell line) was explored by immunofluorescence staining and flow cytometry analysis. Cells were cultured in RPMI 1640 medium (GIBCO, Cat. 3105205) supplemented with 2 mM glutamax (GIBCO), 100 UI/mL penicillin, 100 μg/mL streptomycin (Sigma) and 5-10% fetal bovine serum (GIBCO), at 37° C. and 5% CO₂. After washing in PBS Jurkat or SKW6.4 cells (0.2×10⁶ cells/well) were incubated in staining buffer (PBS/1% FBS) containing F45D9-γ1, F45D9-γ4 or human IgG control antibodies (Human IgG1, kappa, Sigma, Cat. I5154 or Human IgG4, kappa, Sigma, Cat. I4639) in a 96-well U-bottom plate for 30 min on ice, in a 100 ul/well volume. Cells were then washed once with staining buffer, and further incubated for 30 min on ice with 1:30 dilution of FITC-conjugated rabbit F(ab′)₂ anti-human IgG (DakoCytomation Cat. F0056). After washing and fixing with 1% formaldehyde in PBS cells were analyzed in a FACScan (Becton Dickinson, Mountain View, Calif.). The reactivity of F45D9-γ1 and F45D9-γ4 to the surface of Jurkat cells was quantified and Geometric Mean Fluorescence Intensity (MFI) after background subtraction (FIG. 1A) and histograms (FIG. 1B) are shown. […]

[3] = molecular target: T1, Human Fas (CD95) on the cell surface; assay: flow cytometry on Jurkat cells, FITC anti-human IgG secondary, geometric MFI after background subtraction
Description: as §1

[4] = molecular target: T2, Chimpanzee Fas on the cell surface (chimpanzee, UniProt K6ZIR5 26-335); assay: flow cytometry on chimpanzee cells
T2 construct: also called Fas on chimpanzee B cell line
T2 sequence: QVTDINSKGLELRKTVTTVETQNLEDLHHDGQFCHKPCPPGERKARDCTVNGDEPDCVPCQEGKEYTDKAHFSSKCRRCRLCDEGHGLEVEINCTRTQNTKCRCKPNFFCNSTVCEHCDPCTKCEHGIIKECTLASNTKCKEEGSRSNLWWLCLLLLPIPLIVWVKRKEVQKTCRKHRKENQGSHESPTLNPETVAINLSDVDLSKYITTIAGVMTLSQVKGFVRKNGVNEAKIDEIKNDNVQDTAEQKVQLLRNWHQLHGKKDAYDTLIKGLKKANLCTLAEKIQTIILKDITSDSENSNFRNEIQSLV

[5] = molecular target: T3, Recombinant human soluble Fas receptor (PeproTech, Cat. 310-20) (human, UniProt P25445 17-173); assay: SPR (BIAcore 3000), soluble Fas immobilized on CM5 chip, antibody as analyte, bivalent analyte fit
T3 construct: Bought soluble form; also called sFas; rFas
T3 sequence (looked up): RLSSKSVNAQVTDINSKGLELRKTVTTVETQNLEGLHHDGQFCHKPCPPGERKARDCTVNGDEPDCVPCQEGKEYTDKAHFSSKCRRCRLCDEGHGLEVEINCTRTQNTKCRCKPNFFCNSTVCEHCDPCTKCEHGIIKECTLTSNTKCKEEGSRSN
Description: The interaction of F45D9 mAb's (γ-γ1 and γ4-isotypes) with immobilized soluble human Fas receptor was monitored by surface plasmon resonance detection using a BIAcore 3000 instrument. Recombinant human soluble Fas receptor (srFas) (PeproTech, cat. 310-20) was immobilized (concentration of 5 ug/ml in immobilization buffer: 10 mM sodium acetate pH 5.0) onto a CM5 sensor chip (BIAcore BR-1001-14) using an Amine Coupling kit (BIAcore, Cat. BR-1000-50), at a surface density of […] resonance units (RU). Deactivation of excess reactive groups on the chip surface was done by adding 1.0 M ethalonamine hydrochloride (pH 8.5). F45D9 mAb's-γ1 mAb were passed over the surface in equilibrium binding experiments at concentrations ranging from […] at a flow rate of 30 ul/min. Dilutions and binding experiments were conducted in 0.01 M HEPES (pH 7.4), 0.15 M NaCl, 3 mM EDTA, and 0.005% P-20 (BIAcore surfactant, BR-1001-88). Between each cycle 100 mM HCl was used to regenerate the surfaces at a flow rate 30 ul/min. KA and KD of F45D9 mAb's were-γ1 mAb was determined by fitting bivalentusing BIAcore models (BIAevaluation).

Row | Binder | share of binding capacity on Jurkat cells at which complete blocking of FasL-induced apoptosis is achieved [1] [%] | EC50 (read off the curve) [2] [µg/mL] | IC50 of inhibition of rhFasL-induced apoptosis in SKW6.4 cells (Annexin-V/PI, flow cytometry) [1] [nM] | IC50 of inhibition of rhFasL-induced apoptosis in activated human T cells (Annexin-V/PI, flow cytometry) [1] [nM] | EC50 (read off the curve) [3] [µg/mL] | binding result [4] | Kd [5] [nM]
1 | F45D9-γ1 F(ab′)2 fragment (other) VH: QVQLQQWGAGLLKPSETLSLICAVYGGSFSTYYWTWIRQPPGKGLEWIGEINHRGTTNYSPSLKSRVTISVDTSKNHISLNLTSVTAADTALYYCARGLLWIGEGDYGLDVWGQGTTVTVSS VL: DIQMTQSPSSLSASVGDRVTITCRASQGIRRWLAWYQQKPEKAPKSLIYAASSLQSGVPSRFSGSGSGTDFTLTISSLQPEDFATYYCQQYNSYPYTFGQGTKLEIKR | ≥ 12.5 |  |  |  |  |  | 
2 | F45D9-γ4 mAb (recombinant human mAb T19/B5-1F9, gamma-4 isotype) (antibody, V domains shown, Whole human IgG4 (γ4P allotype vector pIESRαγ4P) with human kappa light chain, made in CHO DG44 cells; also called IgG4; T19/L22/B5-1F9) VH: QVQLQQWGAGLLKPSETLSLICAVYGGSFSTYYWTWIRQPPGKGLEWIGEINHRGTTNYSPSLKSRVTISVDTSKNHISLNLTSVTAADTALYYCARGLLWIGEGDYGLDVWGQGTTVTVSS VL: DIQMTQSPSSLSASVGDRVTITCRASQGIRRWLAWYQQKPEKAPKSLIYAASSLQSGVPSRFSGSGSGTDFTLTISSLQPEDFATYYCQQYNSYPYTFGQGTKLEIKR | ≥ 12.5 | ~0.7 | 0.2 | 0.02 | ~0.6 | binds | 0.0587
